Target: enolase (AP-MS) (Arabidopsis thaliana) (UniProt P25696)
UniProt P25696, sequence (P25696 whole entry): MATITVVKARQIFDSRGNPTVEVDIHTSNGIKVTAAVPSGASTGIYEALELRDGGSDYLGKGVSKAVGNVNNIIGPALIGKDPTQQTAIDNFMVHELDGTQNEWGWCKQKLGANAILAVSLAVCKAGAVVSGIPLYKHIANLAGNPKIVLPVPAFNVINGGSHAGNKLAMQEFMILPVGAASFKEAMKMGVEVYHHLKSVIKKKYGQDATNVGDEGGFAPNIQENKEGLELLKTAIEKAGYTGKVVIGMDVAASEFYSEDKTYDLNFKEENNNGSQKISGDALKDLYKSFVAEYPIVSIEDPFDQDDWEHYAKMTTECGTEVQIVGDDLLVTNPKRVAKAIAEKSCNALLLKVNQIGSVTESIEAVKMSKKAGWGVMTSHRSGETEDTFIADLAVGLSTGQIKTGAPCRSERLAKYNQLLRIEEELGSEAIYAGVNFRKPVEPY

efficiency (Kcat/KM) of the conversion of 3PGA to pyruvate, NADH-coupled assay: isolated mitochondria (complex) against total extra-plastidial extract (free enzymes): 19 times
Substance: phosphoglycerate mutase 1 (AP-MS) (enzyme)
